Laboratory results taken from patent US20230068663A1 (University of Texas, published 2023).

What was measured:
LILRB2-His antigen [1] = biological target: T1, LILRB2-His antigen (UniProt Q8N423 22-460, limits assumed); assay: indirect ELISA, coated LILRB2-His
T1 construct: Coated on ELISA plates; also used for phage panning; also called LILRB2 antigen; not shown: His tag
Procedure: ELISA binding EC of LILRB2 antibodies. The ELISA binding EC₅₀ of these 24 antibodies were measured by indirect ELISA. […] After incubation, HRP-conjugated goat anti-human Fc secondary antibody was incubated with the plates. The TMB substrate was added for color development and measurement of absorbance at 450 nm.

[2] = biological target: T2, LILRB2 chimeric receptor on LILRB2 reporter cells (extracellular domain of LILRB2 fused with … (UniProt Q8N423 22-460)); assay: flow cytometry, LILRB2 reporter cells
T2 construct: extracellular domain;domain: transmembrane/intracellular domains; associates with DAP12; also called LILRB2-expressing reporter cells
From the text: (§1) FIGS. 1A-C. Screening specific monoclonal antibodies for LILRB2. […] Binding of monoclonal antibodies was screened using flow cytometer on LILRB2 reporter cells. Bound antibodies were detected with Allophycocyanin (APC)-labeled goat anti-human IgG secondary antibody. (FIG. 1B) Quantification of binding ability of monoclonal antibodies to LILRB2 reporter cells.
(§2) Screening specific monoclonal antibodies for LILRB2. The inventors employed a stable reporter cell system to detect the binding ability of selected monoclonal antibodies to LILRB2. In this chimeric receptor reporter system, the extracellular domain (ECD) of LILRB2 is fused with transmembrane/intracellular domains of PILRb that associates with the adaptor protein DAP12 containing an immunoreceptor tyrosine-based activation motif. 27 monoclonal antibodies were screened. The LILRB2 reporter cells were incubated with selected monoclonal antibody, then labeled with (APC) goat anti-human IgG secondary antibody. […] The inventors generated LILRBAs and LILRBs reporters stably transduced with each receptor's extracellular domain (ECD).

LAIR1 on reporter cells [3] = biological target: T3, LAIR1 on reporter cells (UniProt Q6GTX8 22-165, limits assumed); assay: flow cytometry, reporter cells
T3 sequence (looked up): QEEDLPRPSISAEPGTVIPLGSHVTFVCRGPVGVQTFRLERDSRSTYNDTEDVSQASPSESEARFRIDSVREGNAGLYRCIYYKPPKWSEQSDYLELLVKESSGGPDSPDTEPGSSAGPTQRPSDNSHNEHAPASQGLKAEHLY

[4] = biological target: T4, full extracellular domain (ECD) of LILRB2 fused to Fc fragment of mouse IgG2a (human; mouse, UniProt Q8N423 22-460); assay: ELISA, coated human LILRB2 ECD-mIgG2a Fc [panel A]
T4 construct: extracellular domain; also called B2-ECD; wildtype B2-ECD; not shown: Fc fragment of mouse IgG2a
From the text: FIGS. 19A-B. ELISA binding measurement of antibodies to human and non-human primate (cynomolgus monkey, cyno) LILRB2 recombinantly produced in HEK293 cells. (FIG. 19A) ELISA binding to human LILRB2. (FIG. 19B) ELISA binding to cyno-LILRB2. The fusion proteins of the extracellular domain (ECD) of human LILRB2 or NHP-LILRB2 with Fe of mouse IgG2a were used to coat ELISA plates and antibodies were titrated in different concentrations as indicated in the graph.

LAIR1 on reporter cells [5] = biological target: T3, LAIR1 on reporter cells; assay: flow cytometry, reporter cells; remark: listed apart in the source
Procedure: Binding of LILRB2 monoclonal antibodies was detected using flow cytometry on LILRAs, LILRBs or LAIR1-expressing reporter cells using a Allophycocyanin (APC)-labeled goat anti-human IgG Fc specific secondary antibody. Non: non-stained reporter cells. NEG: cells incubated only with secondary Ab. POS: cells incubated with commercial antibody conjugated with APC or AF647 for the respective LIL or LAIR-1 receptors. The number indicates mean fluorescence intensity (MFI) of APC or AF647.

[6] = biological target: T5, LILRB2 (antigen in solution, Octet RED 96) (UniProt Q8N423 22-460, limits assumed); assay: BLI (Octet RED 96), antibody on protein A biosensor, LILRB2 in solution
T5 construct: also called LILRB2 solution
Procedure: Affinity measurement of blocking antibodies. Affinities of the 5 blocking antibodies were measured on Octet RED 96 system.

LILRB2-His antigen [7] = biological target: T1, LILRB2-His antigen; assay: ELISA titration on LILRB2 and LILRA1 antigens
LILRA5 = biological target: T6, LILRA5; assay: flow cytometry, reporter cells [cont'd]
T6 construct: also called LILRA5 reporter cells
T6 sequence (chain, as listed by the source limits assumed): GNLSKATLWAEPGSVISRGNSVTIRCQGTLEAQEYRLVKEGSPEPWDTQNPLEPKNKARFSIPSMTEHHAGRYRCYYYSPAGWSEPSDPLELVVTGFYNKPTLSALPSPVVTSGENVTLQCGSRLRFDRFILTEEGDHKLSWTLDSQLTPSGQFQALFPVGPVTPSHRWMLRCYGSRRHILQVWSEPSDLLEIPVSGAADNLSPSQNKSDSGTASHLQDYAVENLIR

LILRA6 = biological target: T7, LILRA6; assay: flow cytometry, reporter cells [cont'd]
T7 construct: also called LILRA6 reporter cells
T7 sequence (chain, as listed by the source limits assumed): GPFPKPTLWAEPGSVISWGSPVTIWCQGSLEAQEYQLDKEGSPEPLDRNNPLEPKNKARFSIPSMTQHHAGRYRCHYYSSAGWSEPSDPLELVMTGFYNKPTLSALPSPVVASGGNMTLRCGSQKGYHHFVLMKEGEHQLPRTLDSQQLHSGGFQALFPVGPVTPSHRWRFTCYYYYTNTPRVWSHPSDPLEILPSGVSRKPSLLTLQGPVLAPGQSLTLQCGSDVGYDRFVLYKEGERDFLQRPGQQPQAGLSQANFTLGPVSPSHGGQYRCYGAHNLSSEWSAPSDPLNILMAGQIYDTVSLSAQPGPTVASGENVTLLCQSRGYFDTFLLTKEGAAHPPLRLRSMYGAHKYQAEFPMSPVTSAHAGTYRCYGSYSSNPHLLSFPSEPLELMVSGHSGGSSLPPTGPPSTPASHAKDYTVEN

LAIR1 on reporter cells [8] = biological target: T3, LAIR1 on reporter cells; assay: flow cytometry, reporter cells [cont'd]
[9] = biological target: T2, LILRB2 chimeric receptor on LILRB2 …; assay: flow cytometry on LILRB2 reporter cells, APC anti-human IgG
From the text: as §1, §2

B1: B2-8 (antibody, V domains shown)
VH: QVQLVQSGAEVKKPGSSVKVSCKASGGTFSSYAISWVRQAPGQGLEWMGGIIPIFGTANYAQKFQGRVTITADESTSTAYMELSSLRSEDTAVYYCARVAVADTFFDYWGQGTLVTVSS
VL: QPVLTQPASVSGSPGQSITISCTGTSSDVGGYNYVSWYQQHPGKAPKLMIYDVSNRPSGVSNRFSGSKSGNTASLTISGLQAEDEADYYCSSYTSSSTPYVFGTGTKVTVL
notes: also called B2-8_HC; B2-8_LC
EC50 (LILRB2-His antigen [1]): 0.557 nM | % of cells anti-hIgG APC+ [2]: 24.8% | binding result (LAIR1 on reporter cells [3]): no binding

B2: HCB2-17 (antibody, V domains shown)
VH: QVQLVQSGAEVKKPGSSVKVSCKASGGTFSSYAISWVRQAPGQGLEWMGGIIPIFGTANYAQKFQGRVTITADESTSTAYMELSSLRSEDTAVYYCAISSGYYYNPFDYWGQGTLVTVSS
VL: not shown
notes: also called HCB2-17_HC; HCB2-17_LC
binding result [4]: binds

B3: HCB2-18 (antibody, V domains shown)
VH: QVQLVQSGAEVKKPGSSVKVSCKASGGTFSSYAISWVRQAPGQGLEWMGGIIPIFGTANYAQKFQGRVTITADESTSTAYMELSSLRSEDTAVYYCARGGYQPLDYWGQGTLVIVSS
VL: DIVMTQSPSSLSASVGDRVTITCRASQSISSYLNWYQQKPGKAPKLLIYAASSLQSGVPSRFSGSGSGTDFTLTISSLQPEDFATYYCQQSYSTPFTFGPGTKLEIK
notes: also called HCB2-18_HC; HCB2-18_LC
binding result [4]: binds

B4: HCB2-5 (antibody, V domains shown)
VH: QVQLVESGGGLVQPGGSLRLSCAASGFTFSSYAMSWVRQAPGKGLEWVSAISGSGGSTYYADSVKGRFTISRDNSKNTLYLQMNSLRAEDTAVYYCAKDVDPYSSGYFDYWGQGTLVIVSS
VL: AIQMTQSPSSVSASVGDRVTITCRASQGIGSWLAWYQQKPGKAPKLLISVASSLQSGVPSRFSGSGSGTDFTLTISSLQPEDFATYYCQQANSFPLTFGGGTTVEIK
notes: also called FCB2-5; HCB2-5_HC
binding result (LAIR1 on reporter cells [5]): no binding | Kd [6]: 10.2 nM | koff [6]: 0.00324 s⁻¹ | kon [6]: 317000 M⁻¹ s⁻¹

B5: HCB2-15 (antibody, V domains shown)
VH: QVQMVESGGDLVQPGQSLRLSCVTSGFPFADYAMSWFRQAPGQRPEWIGYIKSKTRDGTTKYAESLRGRFTISRDDSKSIAYLQMNNLKREDTAVYYCALGGAAALWGPGTLVSVSS
VL: QPPSVSGAPGQRVTISCAGSSSNIGAGYGVHWYQHLPGTAPKLLIYGDNNRPSGVPYRFSGSKSGTSASLAITGLQAEDEADYFCQSYDSSLGVGVFGGGTKVTVL
notes: also called HCB2-15_HC; HCB2-15_LC
binding result [4]: binds

B6: B2-10 (antibody, V domains shown)
VH: QVQLVQSGGGLVQPGGSLRLSCAASGFTFSSYAMSWVRQAPGKGLEWVSTINDSGGSTYYADSVKGRFTISRDNSKNTLYLQMNSLRAEDTAVYYCAKDHITIFGVAPFDYWGLGTLVTVSS
VL: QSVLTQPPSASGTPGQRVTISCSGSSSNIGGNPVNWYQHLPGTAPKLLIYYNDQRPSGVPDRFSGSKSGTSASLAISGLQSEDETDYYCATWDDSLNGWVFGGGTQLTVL
notes: also called B2-10_HC; B2-10_LC
EC50 (LILRB2-His antigen [1]): 0.575 nM | % of cells anti-hIgG APC+ [2]: 35.1% | fold potency of binding to LILRB2 against binding to LILRA1 (LILRB2-His antigen [7]): > 100 fold

B7: HCB2-24 (antibody, V domains shown)
VH: QMQLEQSGAEVKKPGSSVKVSCKASGGTFSSYAISWVRQAPGQGLEWMGGIIPIFGTANYAQKFQGRVTITADKSTSTAYMELSSLRSEDTAVYYCARAGGIHYYDSLDYWGQGTLVTVSS
VL: not shown
notes: also called HCB2-24_HC; HCB2-24_LC
binding result [4]: binds

B8: B2-12 (antibody, V domains shown)
VH: QVQLVQSGDEVKKAGASVRVSCKASGYTFPDNGISWVRQAPGHGLEWMGWINVDTGYTHYAQRVQDRVVMTTDTSTNTLHMTLRSLTTDDTAVYYCAREIEGVWTAWGQGTLVIVSS
VL: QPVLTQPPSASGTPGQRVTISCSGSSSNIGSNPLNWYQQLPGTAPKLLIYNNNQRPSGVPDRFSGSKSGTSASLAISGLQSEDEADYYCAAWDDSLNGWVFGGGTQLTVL
notes: also called B2-12_HC; B2-12_LC
EC50 (LILRB2-His antigen [1]): 0.444 nM | % of cells anti-hIgG APC+ [2]: 25.5% | binding result (LILRA5): no binding | binding result (LILRA6): no binding | binding result (LAIR1 on reporter cells [8]): no binding | fold potency of binding to LILRB2 against binding to LILRA1 (LILRB2-His antigen [7]): > 100 fold

B9: HCB2-10 (antibody, V domains shown)
VH: QVQLVESGGGLVQPGGSLRLSCAASGFTFSNYAMSWVRQAPGKGLEWVSAISGSSISTYYADSVKGRFTISRDNSKNTLYLQMNSLRAEDTAVYYCASSGFGSFDYWGQGTLVTVSS
VL: QPPSVSAAPRQRVTISCSGSSSNIGDNSVNWYQQLPGKAPKLLIYLDDLLPSGVSGRFSGSKSGTSASLVISGLQSEDEADYYCATWDDSLNGVVFGGGTKVTVL
notes: also called HCB2-10_HC; HCB2-10_LC
binding result (LAIR1 on reporter cells [5]): no binding | Kd [6]: 8.67 nM | koff [6]: 0.0061 s⁻¹ | kon [6]: 703000 M⁻¹ s⁻¹

B10: B2-18 (antibody, V domains shown)
VH: QVQLVQSGAEVKKPGASVKVSCKASGYTFTRYGFSWVRQAPGQGLEWMGWISGYNGNTKYAQKFQGRVTMTTDTSTSTAYMELRSLTSNDTAVYYCARDRGSGYLEYWGPGTLVTVSS
VL: DVQMTQSPSSLSASVGERVTLTCRASQGIYSSLAWYQQKPGKAPKLLLYGTSQLERGVPSRFSGSGSGTDYTLTISSLQPEDSATYYCQQHYNLPITFGQGTRLEIK
notes: also called B2-18_HC; B2-18_LC
EC50 (LILRB2-His antigen [1]): 0.355 nM | % of cells anti-hIgG APC+ [2]: 75.6% | percent of LILRB2 reporter cells labeled [9]: > 95% | binding result (LILRA5): no binding | binding result (LILRA6): no binding | binding result (LAIR1 on reporter cells [8]): no binding | fold potency of binding to LILRB2 against binding to LILRA1 (LILRB2-His antigen [7]): > 100 fold

B11: B2-24 (antibody, V domains shown)
VH: QVQLVESGGGLVKPGGSLRLSCAASGFTFSDYYMSWIRQAPGKGLEWVSYISSSSSYTNYADSVKGRFTISRDNAKNSLYLQMNSLRAEDTAVYYCARVGDLDAFDIWGQGTMVTVSS
VL: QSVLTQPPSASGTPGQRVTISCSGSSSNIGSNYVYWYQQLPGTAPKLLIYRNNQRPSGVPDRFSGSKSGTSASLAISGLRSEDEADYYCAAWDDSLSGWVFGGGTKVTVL
notes: also called B2-24_HC; B2-24_LC
EC50 (LILRB2-His antigen [1]): 5.06 nM | % of cells anti-hIgG APC+ [2]: 13% | binding result (LAIR1 on reporter cells [3]): no binding

B12: B2-25 (antibody, V domains shown)
VH: QVQLVESGGGLVKPGGSLRLSCAASGFTFSDHYMSWIRQAPGKGLEWVSYITTTGSTMSYADSVKGRFTISRDNSKNSLHLQLSSLRAEDTAVYYCARDSIHVDGAFDIWGQGTMVTVSS
VL: SYELTQPPSVSVAPGQTARITCGGNNIGSKSVHWYQQKPGQAPVLVVYDDSDRPSGIPERFSGSNSGNTATLTISRVEAGDEADYYCQVWDSSSDHWVFGGGTKLTVL
notes: also called B2-25_HC; B2-25_LC
EC50 (LILRB2-His antigen [1]): 1.73 nM | % of cells anti-hIgG APC+ [2]: 39.2% | binding result (LAIR1 on reporter cells [8]): no binding

B13: HCB2-27 (antibody, V domains shown)
VH: QVQLVESGGGLVKPGGSLRLSCAASGFTFANAWMGWVRQAPGKGLQWVSHIKPSSSGGRTTDYDAPVKGRFTISRDDSNDTVYLQMNSLKTEDTGVYYCVTGRRVAKTFDFWGQGTTVSVSS
VL: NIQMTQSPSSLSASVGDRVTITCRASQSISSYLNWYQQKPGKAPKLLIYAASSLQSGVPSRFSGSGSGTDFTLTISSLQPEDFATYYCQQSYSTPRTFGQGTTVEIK
notes: also called HCB2-27_HC; HCB2-27_LC
binding result [4]: binds
